Measured values as given in publication PMC9029106.

Biological target: SKP2 (UniProt Q13309)
Assay: co-IP, blot for Myc and p27
Conditions: reference: wild-type p27; sites T187

binding against the reference: lost
Substance: p27 (Kip1) (from UniProt P46527) p27 T187A
